Data set [1] concerns SHS231 right TALEN (synthetic). Briefly: cell_activity. Conditions: as pair with left TALEN; 1/81 clones, 293T.
The subject of data set [2] is SHS231 left TALEN (synthetic). Briefly: cell_activity. Conditions: as pair with right TALEN; 1/81 clones, 293T.

For “TGTATGCTTTCCTCTTGTTA (double strand) [SHS231 right TALEN half-site]”, in data set [1], the activity (% targeted integration) was 1.23.

“TTGGCTAGGGCTAAGGATTA (double strand) [SHS231 left TALEN half-site]”: the activity (% targeted integration) in data set [2] came to 1.23.

The record behind these values is patent publication US20200370067.
